Test results reported in patent publication US20110318339A1.

How the values were obtained:
[1] = molecular target: rHuman EGF R/Fc Chimera, CF (Cat# 344-ER) (human) (UniProt P00533); test: Multispot ECL; Fab 232.5 nM
[2] = molecular target: rHuman P-Cadherin/Fc Chimera, CF (Cat# 861-PC) (human) (UniProt P22223); test: Multispot ECL; Fab 232.5 nM
[3] = molecular target: rHuman EGF R/Fc Chimera, CF (Cat# 344-ER) (human) (UniProt P00533); test: Multispot ECL; Fab 930 nM
[4] = molecular target: rHuman P-Cadherin/Fc Chimera, CF (Cat# 861-PC) (human) (UniProt P22223); test: Multispot ECL; Fab 930 nM
[5] = molecular target: rHuman EGF R/Fc Chimera, CF (Cat# 344-ER) (human) (UniProt P00533); test: Multispot ECL; Fab 14.5 nM
[6] = molecular target: rHuman P-Cadherin/Fc Chimera, CF (Cat# 861-PC) (human) (UniProt P22223); test: Multispot ECL; Fab 14.5 nM
[7] = molecular target: rHuman EGF R/Fc Chimera, CF (Cat# 344-ER) (human) (UniProt P00533); test: Multispot ECL; Fab 58.1 nM
[8] = molecular target: rHuman P-Cadherin/Fc Chimera, CF (Cat# 861-PC) (human) (UniProt P22223); test: Multispot ECL; Fab 58.1 nM
[9] = molecular target: rHuman IGF-1 sR, (IGF-1 sR), CF (Cat# 391-GR) (human) (UniProt P08069); test: Multispot ECL; Fab 52.5 nM
[10] = molecular target: rHuman EGF R/Fc Chimera, CF (Cat# 344-ER) (human) (UniProt P00533); test: Multispot ECL; Fab 52.5 nM
[11] = molecular target: rHuman ErbB2/Fc Chimera, CF (Cat# 1129-ER) (human) (UniProt P04626); test: Multispot ECL; Fab 52.5 nM
[12] = molecular target: rHuman Notch-1/Fc Chimera, CF (Cat# 3647-TK) (human) (UniProt P46531); test: Multispot ECL; Fab 52.5 nM
[13] = molecular target: rHuman HGF R/c-MET/Fc Chimera, CF (Cat# 358-MT/CF) (human) (UniProt P08581); test: Multispot ECL; Fab 52.5 nM
[14] = molecular target: rHuman Erythropoietin R/Fc Chimera, CF (Cat# 963-ER) (human) (UniProt P19235); test: Multispot ECL; Fab 52.5 nM
Chain of rHuman Erythropoietin R/Fc Chimera, CF (Cat# 963-ER) (human) (P19235 25-250, change not shown): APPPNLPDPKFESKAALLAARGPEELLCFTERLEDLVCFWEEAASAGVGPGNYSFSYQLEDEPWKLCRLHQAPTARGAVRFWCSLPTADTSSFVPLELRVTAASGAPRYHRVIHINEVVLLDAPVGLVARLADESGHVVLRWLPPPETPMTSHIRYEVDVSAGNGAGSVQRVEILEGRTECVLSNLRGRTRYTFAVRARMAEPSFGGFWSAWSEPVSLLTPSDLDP

[15] = molecular target: rHuman IGF-1 sR, (IGF-1 sR), CF (Cat# 391-GR) (human) (UniProt P08069); test: Multispot ECL; Fab […]
[16] = molecular target: rHuman EGF R/Fc Chimera, CF (Cat# 344-ER) (human) (UniProt P00533); test: Multispot ECL; Fab […]
[17] = molecular target: rHuman ErbB2/Fc Chimera, CF (Cat# 1129-ER) (human) (UniProt P04626); test: Multispot ECL; Fab […]
[18] = molecular target: rHuman Notch-1/Fc Chimera, CF (Cat# 3647-TK) (human) (UniProt P46531); test: Multispot ECL; Fab […]
[19] = molecular target: rHuman HGF R/c-MET/Fc Chimera, CF (Cat# 358-MT/CF) (human) (UniProt P08581); test: Multispot ECL; Fab […]
[20] = molecular target: rHuman Erythropoietin R/Fc Chimera, CF (Cat# 963-ER) (human) (UniProt P19235); test: Multispot ECL; Fab […]
[21] = molecular target: rHuman IGF-1 sR, (IGF-1 sR), CF (Cat# 391-GR) (human) (UniProt P08069); test: Multispot ECL; Fab 3.3 nM
[22] = molecular target: rHuman EGF R/Fc Chimera, CF (Cat# 344-ER) (human) (UniProt P00533); test: Multispot ECL; Fab 3.3 nM
[23] = molecular target: rHuman ErbB2/Fc Chimera, CF (Cat# 1129-ER) (human) (UniProt P04626); test: Multispot ECL; Fab 3.3 nM
[24] = molecular target: rHuman Notch-1/Fc Chimera, CF (Cat# 3647-TK) (human) (UniProt P46531); test: Multispot ECL; Fab 3.3 nM
[25] = molecular target: rHuman HGF R/c-MET/Fc Chimera, CF (Cat# 358-MT/CF) (human) (UniProt P08581); test: Multispot ECL; Fab 3.3 nM
[26] = molecular target: rHuman Erythropoietin R/Fc Chimera, CF (Cat# 963-ER) (human) (UniProt P19235); test: Multispot ECL; Fab 3.3 nM
[27] = molecular target: rHuman IGF-1 sR, (IGF-1 sR), CF (Cat# 391-GR) (human) (UniProt P08069); test: Multispot ECL; Fab 210 nM
[28] = molecular target: rHuman EGF R/Fc Chimera, CF (Cat# 344-ER) (human) (UniProt P00533); test: Multispot ECL; Fab 210 nM
[29] = molecular target: rHuman ErbB2/Fc Chimera, CF (Cat# 1129-ER) (human) (UniProt P04626); test: Multispot ECL; Fab 210 nM
[30] = molecular target: rHuman Notch-1/Fc Chimera, CF (Cat# 3647-TK) (human) (UniProt P46531); test: Multispot ECL; Fab 210 nM
[31] = molecular target: rHuman HGF R/c-MET/Fc Chimera, CF (Cat# 358-MT/CF) (human) (UniProt P08581); test: Multispot ECL; Fab 210 nM
[32] = molecular target: rHuman Erythropoietin R/Fc Chimera, CF (Cat# 963-ER) (human) (UniProt P19235); test: Multispot ECL; Fab 210 nM
[33] = molecular target: rHuman IGF-1 sR, (IGF-1 sR), CF (Cat# 391-GR) (human) (UniProt P08069); test: Multispot ECL; Fab 580 nM
[34] = molecular target: rHuman EGF R/Fc Chimera, CF (Cat# 344-ER) (human) (UniProt P00533); test: Multispot ECL; Fab 580 nM
[35] = molecular target: rHuman ErbB2/Fc Chimera, CF (Cat# 1129-ER) (human) (UniProt P04626); test: Multispot ECL; Fab 580 nM
[36] = molecular target: rHuman Notch-1/Fc Chimera, CF (Cat# 3647-TK) (human) (UniProt P46531); test: Multispot ECL; Fab 580 nM
[37] = molecular target: rHuman HGF R/c-MET/Fc Chimera, CF (Cat# 358-MT/CF) (human) (UniProt P08581); test: Multispot ECL; Fab 580 nM
[38] = molecular target: rHuman P-Cadherin/Fc Chimera, CF (Cat# 861-PC) (human) (UniProt P22223); test: Multispot ECL; Fab 580 nM
[39] = molecular target: rHuman Erythropoietin R/Fc Chimera, CF (Cat# 963-ER) (human) (UniProt P19235); test: Multispot ECL; Fab 580 nM
[40] = molecular target: rHuman IGF-1 sR, (IGF-1 sR), CF (Cat# 391-GR) (human) (UniProt P08069); test: Multispot ECL; Fab 145 nM
[41] = molecular target: rHuman EGF R/Fc Chimera, CF (Cat# 344-ER) (human) (UniProt P00533); test: Multispot ECL; Fab 145 nM
[42] = molecular target: rHuman Notch-1/Fc Chimera, CF (Cat# 3647-TK) (human) (UniProt P46531); test: Multispot ECL; Fab 145 nM
[43] = molecular target: rHuman HGF R/c-MET/Fc Chimera, CF (Cat# 358-MT/CF) (human) (UniProt P08581); test: Multispot ECL; Fab 145 nM
[44] = molecular target: rHuman P-Cadherin/Fc Chimera, CF (Cat# 861-PC) (human) (UniProt P22223); test: Multispot ECL; Fab 145 nM
[45] = molecular target: rHuman Erythropoietin R/Fc Chimera, CF (Cat# 963-ER) (human) (UniProt P19235); test: Multispot ECL; Fab 145 nM
[46] = molecular target: rHuman IGF-1 sR, (IGF-1 sR), CF (Cat# 391-GR) (human) (UniProt P08069); test: Multispot ECL; Fab 9.1 nM
[47] = molecular target: rHuman EGF R/Fc Chimera, CF (Cat# 344-ER) (human) (UniProt P00533); test: Multispot ECL; Fab 9.1 nM
[48] = molecular target: rHuman ErbB2/Fc Chimera, CF (Cat# 1129-ER) (human) (UniProt P04626); test: Multispot ECL; Fab 9.1 nM
[49] = molecular target: rHuman Notch-1/Fc Chimera, CF (Cat# 3647-TK) (human) (UniProt P46531); test: Multispot ECL; Fab 9.1 nM
[50] = molecular target: rHuman HGF R/c-MET/Fc Chimera, CF (Cat# 358-MT/CF) (human) (UniProt P08581); test: Multispot ECL; Fab 9.1 nM
[51] = molecular target: rHuman P-Cadherin/Fc Chimera, CF (Cat# 861-PC) (human) (UniProt P22223); test: Multispot ECL; Fab 9.1 nM
[52] = molecular target: rHuman Erythropoietin R/Fc Chimera, CF (Cat# 963-ER) (human) (UniProt P19235); test: Multispot ECL; Fab 9.1 nM
[53] = molecular target: rHuman IGF-1 sR, (IGF-1 sR), CF (Cat# 391-GR) (human) (UniProt P08069); test: Multispot ECL; Fab 36.3 nM
[54] = molecular target: rHuman EGF R/Fc Chimera, CF (Cat# 344-ER) (human) (UniProt P00533); test: Multispot ECL; Fab 36.3 nM
[55] = molecular target: rHuman ErbB2/Fc Chimera, CF (Cat# 1129-ER) (human) (UniProt P04626); test: Multispot ECL; Fab 36.3 nM
[56] = molecular target: rHuman Notch-1/Fc Chimera, CF (Cat# 3647-TK) (human) (UniProt P46531); test: Multispot ECL; Fab 36.3 nM
[57] = molecular target: rHuman HGF R/c-MET/Fc Chimera, CF (Cat# 358-MT/CF) (human) (UniProt P08581); test: Multispot ECL; Fab 36.3 nM
[58] = molecular target: rHuman P-Cadherin/Fc Chimera, CF (Cat# 861-PC) (human) (UniProt P22223); test: Multispot ECL; Fab 36.3 nM
[59] = molecular target: rHuman Erythropoietin R/Fc Chimera, CF (Cat# 963-ER) (human) (UniProt P19235); test: Multispot ECL; Fab 36.3 nM

An ECL signal [1] of 803, an ECL signal [2] of 655 and an ECL signal [3] of 3110 were found for “Fab VH1-46_IGHD6-13*01_IGHJ4*01 & O1_IGKJ1*01” in this work. For the same substance, the ECL signal [4] was 2440, the ECL signal [5] was 357 and the ECL signal [6] was 277. For the same substance, the ECL signal [7] was 444 and the ECL signal [8] was 478.
An ECL signal [9] of 911, an ECL signal [10] of 1110 and an ECL signal [11] of 1510 were found for “Fab VH4-31_IGHD2-15*01_IGHJ2*01 & V1-4_IGLJ4*01” in this work. It also gave an ECL signal [12] of 1320, an ECL signal [13] of 1290 and an ECL signal [14] of 1320. It also gave an ECL signal [15] of 814, an ECL signal [16] of 824 and an ECL signal [17] of 930. For the same substance, the ECL signal [18] was 669, the ECL signal [19] was 981 and the ECL signal [20] was 776. The ECL signal [21] was 743, the ECL signal [22] was 847 and the ECL signal [23] was 1030. The ECL signal [24] was 726, the ECL signal [25] was 849 and the ECL signal [26] was 695. The ECL signal [27] was 1430, the ECL signal [28] was 1620 and the ECL signal [29] was 1980. For the same substance, the ECL signal [30] was 1970, the ECL signal [31] was 2060 and the ECL signal [32] was 2120.
An ECL signal [33] of 1360, an ECL signal [34] of 1630 and an ECL signal [35] of 1710 were found for “Fab VH4-34_IGHD7-27*01_IGHJ4*01 & V1-4_IGLJ4*01” in this work. It also gave an ECL signal [36] of 1580, an ECL signal [37] of 2340 and an ECL signal [38] of 2240. It also gave an ECL signal [39] of 1580, an ECL signal [40] of 794 and an ECL signal [41] of 856. It also gave an ECL signal [42] of 860, an ECL signal [43] of 1170 and an ECL signal [44] of 850. For the same substance, the ECL signal [45] was 845, the ECL signal [46] was 788 and the ECL signal [47] was 800. It also gave an ECL signal [48] of 987, an ECL signal [49] of 754 and an ECL signal [50] of 894. The ECL signal [51] was 589, the ECL signal [52] was 697 and the ECL signal [53] was 799. The ECL signal [54] was 831, the ECL signal [55] was 1030 and the ECL signal [56] was 633. It also gave an ECL signal [57] of 1060, an ECL signal [58] of 684 and an ECL signal [59] of 722.
